According to patent US11578136B2, “Compositions and methods for treating cancer” (INNATE PHARMA, priority 2017, dated 2023):
Residue numbers refer to the chain shown, from its start.

Legend:
[1] = biological target: T1, CD39 mutants transfected in Hek-293T cells (Homo sapiens, UniProt P49961, E142K/M139A/R138A); test: Epitope mapping: binding to CD39 mutants by flow cytometry; conditions: mutant 19: R138A, M139A, E142K; vs wild-type CD39
T1 construct: expressed in transfected cells; host or cells: HEK-293T cells
T1 sequence (P49961 1-510 R138A/M139A/E142K): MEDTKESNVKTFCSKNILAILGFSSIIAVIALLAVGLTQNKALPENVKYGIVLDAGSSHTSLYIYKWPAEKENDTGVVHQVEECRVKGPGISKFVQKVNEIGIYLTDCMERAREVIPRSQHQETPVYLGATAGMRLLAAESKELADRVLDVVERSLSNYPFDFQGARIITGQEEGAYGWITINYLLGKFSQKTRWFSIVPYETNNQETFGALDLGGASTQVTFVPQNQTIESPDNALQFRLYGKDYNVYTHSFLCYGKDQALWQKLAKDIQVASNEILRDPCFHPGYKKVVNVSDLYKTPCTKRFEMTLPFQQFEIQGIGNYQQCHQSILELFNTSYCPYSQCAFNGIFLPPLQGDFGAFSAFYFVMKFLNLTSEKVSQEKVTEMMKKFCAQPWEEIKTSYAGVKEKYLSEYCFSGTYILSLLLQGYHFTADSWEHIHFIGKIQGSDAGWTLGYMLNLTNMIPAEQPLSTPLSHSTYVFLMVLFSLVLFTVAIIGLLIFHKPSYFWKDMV
Procedure: (§1) CD39 mutants were generated by PCR. The sequences amplified were run on agarose gel and purified using the Macherey Nagel PCR Clean-Up Gel Extraction kit (reference 740609). The purified PCR products generated for each mutant were then ligated into an expression vector, with the ClonTech InFusion system. The vectors containing the mutated sequences were prepared as Miniprep and sequenced. After sequencing, the vectors containing the mutated sequences were prepared as Midiprep using the Promega PureYield™ Plasmid Midiprep System. HEK293T cells were grown in DMEM medium (Invitrogen), transfected with vectors using Invitrogen's Lipofectamine 2000 and incubated at 37° C. in a CO2 incubator for 48 hours prior to testing for transgene expression. The targeted amino acid mutations in the table 1 below are shown using numbering of SEQ ID NO: 1.
(§2) In order to define the epitopes of anti-CD39 antibodies, we designed CD39 mutants defined by substitutions of amino acids exposed at the molecular surface over the surface of CD39. Mutants were transfected in Hek-293T cells, as shown in the table 1, using numbering of SEQ ID NO: 1.
(§3) Dose-ranges of I-394 (10-2.5-0.625-0.1563-0.0391-0.0098-0.0024-0.0006 μg/ml) are tested on the 20 generated mutants by flow cytometry. […] Mutant 5 contains amino acid substitutions at residues Q96, N99, E143 and R147.
(§4) Mutants were transfected in Hek-293T cells, as shown in the table 1, using numbering of SEQ ID NO: 1. Dose-ranges of antibodies I-394 were tested on the 20 mutants by flow cytometry. […] Mutant 19 includes substitutions at residues R138, M139 and E142. The core epitope of I-394 thus includes one or more (or all of) residues R138, M139 and E142.
(§5) Mutants were transfected in Hek-293T cells, as shown in the table 1, using numbering of SEQ ID NO: 1.Dose-ranges of test antibodies (10-2.5-0.625-0.1563-0.0391-0.0098-0.0024-0.0006 μg/ml) are tested on the 20 generated mutants by flow cytometry.

[2] = biological target: T2, CD39 mutants transfected in Hek-293T cells (Homo sapiens, UniProt P49961, E143A/N99A/Q96A/R147E); test: as above; conditions: mutant 5: Q96A, N99A, E143A, R147E; vs wild-type CD39
T2 construct: expressed in transfected cells; host or cells: HEK-293T cells
T2 sequence (P49961 1-510 Q96A/N99A/E143A/R147E): T1 sequence (P49961 1-510 R138A/M139A/E142K) with Q96A, N99A, A138R, A139M, K142E, E143A, R147E
Procedure: as §1, §2, §3, §4, §5

[3] = biological target: T3, Human CD39-L3 (NTPDase3, ENTPD3) (Homo sapiens, UniProt O75355); test: ELISA titration on CD39-L3; type: binding; conditions: result in words
T3 sequence (O75355 1-529): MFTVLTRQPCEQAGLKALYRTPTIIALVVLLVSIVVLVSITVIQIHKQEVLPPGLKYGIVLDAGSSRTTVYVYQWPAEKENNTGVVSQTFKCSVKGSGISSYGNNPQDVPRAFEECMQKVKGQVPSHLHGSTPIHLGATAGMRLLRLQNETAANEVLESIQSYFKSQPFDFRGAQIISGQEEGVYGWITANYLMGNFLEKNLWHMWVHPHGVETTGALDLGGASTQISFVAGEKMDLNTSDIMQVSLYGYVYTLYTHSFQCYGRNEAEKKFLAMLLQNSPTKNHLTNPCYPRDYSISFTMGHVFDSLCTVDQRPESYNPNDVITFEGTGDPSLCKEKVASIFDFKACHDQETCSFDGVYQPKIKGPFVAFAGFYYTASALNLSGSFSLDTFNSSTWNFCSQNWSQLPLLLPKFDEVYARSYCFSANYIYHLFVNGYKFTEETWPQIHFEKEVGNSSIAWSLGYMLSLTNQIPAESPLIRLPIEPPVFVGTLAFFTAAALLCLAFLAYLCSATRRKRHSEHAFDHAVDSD
Procedure: Antibody I-394 was tested for binding to recombinant human CD39 isoforms (Rec-huCD39 isoforms) having amino acid sequences shown below were coated in 96-well plate in PBS 1× at 500 ng/ml or 1 μg/ml at 4° C. overnight. Wells were washed in TBS Tween 20, and further saturated 2H at RT in TBS Blocking buffer. Dose range concentration of primary antibody was incubated in TBS blocking buffer for 2 h at RT. Wells were washed in TBS Tween 20. […] Optical density was measured on Enspire™ at OD=450.

- binding to cells expressing mutant 19 of CD39 [1]: complete loss of binding
- binding to cells expressing mutant 5 of CD39 [2]: strongly reduced binding
- binding to CD39-L3 in ELISA [3]: not
Substance: I-394: anti-CD39 antibody, VH SEQ ID NO: 6, VL SEQ ID NO: 7; human IgG1 Fc with L234A/L235E/G237A/A330S/P331S
